Target: RNF13 DN-HA (dominant-negative RNF13, HA-tagged) (human) (UniProt O43567)
Experiment: co-IP

UniProt O43567, sequence (O43567 35-381): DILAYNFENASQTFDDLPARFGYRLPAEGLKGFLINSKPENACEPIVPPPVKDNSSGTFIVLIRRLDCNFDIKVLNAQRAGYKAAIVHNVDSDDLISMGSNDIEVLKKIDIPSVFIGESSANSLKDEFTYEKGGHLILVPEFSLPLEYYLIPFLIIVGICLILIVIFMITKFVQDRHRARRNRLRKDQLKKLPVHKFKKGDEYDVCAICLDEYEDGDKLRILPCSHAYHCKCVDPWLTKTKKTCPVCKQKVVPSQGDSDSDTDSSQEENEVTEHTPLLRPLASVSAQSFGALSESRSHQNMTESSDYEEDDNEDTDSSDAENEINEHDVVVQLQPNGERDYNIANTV

amount of IDS co-immunoprecipitated relative to RNF13 WT: 50%
B1: IDS-V5 (wild-type, full-length human iduronate 2-sulfatase, C-terminal V5 tag) (enzyme)
chain: SETQANSTTDALNVLLIIVDDLRPSLGCYGDKLVRSPNIDQLASHSLLFQNAFAQQAVCAPSRVSFLTGRRPDTTRLYDFNSYWRVHAGNFSTIPQYFKENGYVTMSVGKVFHPGISSNHTDDSPYSWSFPPYHPSSEKYENTKTCRGPDGELHANLLCPVDVLDVPEGTLPDKQSTEQAIQLLEKMKTSASPFFLAVGYHKPHIPFRYPKEFQKLYPLENITLAPDPEVPDGLPPVAYNPWMDIRQREDVQALNISVPYGPIPVDFQRKIRQSYFASVSYLDTQVGRLLSALDDLQLANSTIIAFTSDHGWALGEHGEWAKYSNFDVATHVPLIFYVPGRTASLPEAGEKLFPYLDPFDSASQLMEPGRQSMDLVELVSLFPTLAGLAGLQVPPRCPVPSFHVELCREGKNLLKHFRFRDLEEDPYLPGNPRELIAYSQYPRPSDIPQWNSDKPSLKDIKIMGYSIRTIDYRYTVWVGFNPDEFLANFSDIHAGELYFVDSDPLQDHNMYNDSQGGDLFQLLMP
